Assay results reported in patent publication US10947270B2, “Targeted prodrug cytosine deaminase fusion carrier and application thereof” (National Yang-Ming University, priority 2015, dated 2021).
“And” between values parts separate entries of the source, which are not always exact repeats. Equal values may be shown once. Read-outs that look alike come from different tables or passages of the source.

B1: ^111In-DTPA-yCD: indium-111 labeled DTPA-yCD protein (conjugate, UniProt Q12178 1-158, looked up)
Cytosine deaminase: MVTGGMASKWDQKGMDIAYEEAALGYKEGGVPIGGCLINNKDGSVLGRGHNMRFQKGSATLHGEISTLENCGRLEGKVYKDTTLYTTLSPCDMCTGAIIMYGIPRCVVGENVNFKSKGEKYLQTRGHEVVVVDDERCKKIMKQFIDERPQDWFEDIGE
modifications: 111In-DTPA label
notes: indium-111 labeled DTPA-yCD protein
B2: DTPA-RGD4C-yCD: RGD4C-yCD protein modified by the metal chelating agent DTPA (conjugate)
chain: MACDCRGDCFCVTGGMASKWDQKGMDIAYEEAALGYKEGGVPIGGCLINNKDGSVLGRGHNMRFQKGSATLHGEISTLENCGRLEGKVYKDTTLYTTLSPCDMCTGAIIMYGIPRCVVGENVNFKSKGEKYLQTRGHEVVVVDDERCKKIMKQFIDERPQDWFEDIGELEHHHHHH
B3: In-DTPA-RGD4C-yCD: DTPA-RGD4C-yCD treated with the stable isotope of indium under simulated marking conditions (conjugate)
chain: B2 chain
B4: DTPA-yCD: yCD protein modified by the metal chelating agent DTPA (conjugate)
chain: MVVTGGMASKWDQKGMDIAYEEAALGYKEGGVPIGGCLINNKDGSVLGRGHNMRFQKGSATLHGEISTLENCGRLEGKVYKDTTLYTTLSPCDMCTGAIIMYGIPRCVVGENVNFKSKGEKYLQTRGHEVVVVDDERCKKIMKQFIDERPQDWFEDIGELEHHHHHH
B5: In-DTPA-yCD: DTPA-yCD treated with the stable isotope of indium under simulated marking conditions (conjugate)
chain: B4 chain

How the values were obtained:
[1] = parameters: species or system nude mice; settings: mouse, in vivo
Experimental: The arrow is marked as a tumor.
In in-vitro cell experiment, the binding ability of ^111In-DTPA-RGD4C-yCD and the integrin αvβ3 receptor on the cell membrane has been verified. In order to know whether the drug can show its target effect in vivo, integrin αvβ3 is seeded subcutaneously in the right side of nude mice. After the high-expression U87MG tumor cells are grown to 100 mm^3, 60-70 μCi (3-3.5 μg) of ^111In-DTPA-yCD and ^111In-DTPA-RGD4C-yCD are injected directly into the tumor, the images are collected by microSPECT/CT after 1, 4, 24, 48 hours. It can be seen from the image (see FIG. 31) that the drug retention in the ^111In-DTPA-RGD4C-yCD group (orange arrow) is better than that in the ^111In-DTPA-yCD, and the target ligand RGD4C is missing. ^111In-DTPA-yCD enters the systemic blood circulation system within 1 hour and is metabolized by normal organs. From FIG. 31, it can be seen that the kidney is the main metabolic organ of these two drugs. […] After 24-48 hours, the amount of accumulation in the tumor is running out. On the contrary, ^111In-DTPA-RGD4C-yCD is bound with integrin αvβ3 on tumor cells, then the ratio of drug entering the systemic blood circulation is reduced, and the metabolic rate is slow.

[2] = parameters: species or system nude mice; settings: mouse, in vivo; remark: listed apart in the source
Experimental: ES-2-luc tumor nude mice is intraperitoneally injected with 50 μCi (2.5 μg) ^111In-DTPA-yCD and ^111In-DTPA-RGD4C-yCD for 1, 4 and 24 hours, then organs are collected and their radioactivity is measured to obtain biodistribution, as shown in Table 19 and Table 20. […] In addition to the part accumulated in the tumor, another part of the drug is absorbed back into the blood circulation system by the peritoneal blood vessels. […] The pancreatic radioactivity of the two drugs is observed after 1 hour of injection. The pancreatic radioactivity of ^111In-DTPA-RGD4C-yCD (8.06±0.88% ID/g) is higher than that of ^111In-DTPA-yCD (3.91±0.36% ID/g), it is suspected that tumor cells invade the pancreas.

[3] = format: physicochemical
Experimental: The radiochemical purity of ^111In-DTPA-yCD and ^111In-DTPA-RGD4C-yCD are greater than 95% after marking and purification. Both are stored in HEPES buffer liquid (4° C.) for 48 hours, and the radiochemical purity is still higher than 85% (see FIG. 26). Both are placed in fetal bovine serum (37° C.) to simulate their stability in vivo. After 48 hours, the radiochemical purity of both is about 80%. It is shown that radioactive metal indium-111 is stably chelated on DTPA.

[4] = Enzyme kinetic analysis of yCD series proteins after DTPA modification, marking and purification; format: biochemical; settings: for Vmax compared with the original enzyme activity: after EDTA with a 10-fold molar excess of protein
Text: The enzyme activity of yCD is not affected by DTPA modification.
FIGS. 24A-24B show the kinetic curve of yCD series protein modified, labeled and purified by DTPA. The enzyme activity of the two proteins is not affected by the labeling conditions. After adding EDTA with a 10-fold molar excess of protein, and it is competitively purified, In-DTPA-yCD compared with the original enzyme activity.
The curve and enzyme kinetic parameters (see FIG. 18 and Table 13) are fitted by the […] protein enzyme kinetics through the Michaelis-Menten formula in the Graph prism program.
Before the protein is labeled by radioisotope, its enzyme function must be determined, and based on the original enzyme function, it should be examined whether it will be affected during the radioactive marking process. The curve and enzyme kinetic parameters of protein are fitted by the Michaelis-Menten formula in the Graph prism program. […] Whether the yCD and RGD4C-yCD protein detected by the same method will be affected under the conditions of DTPA modification, marking and purification. […] After the completion of the radioactive metal mark, it is necessary to add EDTA of 10-fold protein Moire number and react at room temperature for 1 hour to compete for the radioactive metal isotope indium which is not chelated on DTPA. The EDTA in this step also has the chance to chelate the metal zinc ion of the enzyme catalytic center, the enzyme activity is impaired, so it is necessary to analyze the enzyme activity of In-DTPA-yCD and In-RGD4C-yCD protein after competition with EDTA. After the EDTA competitive reaction is completed, the enzyme kinetics analysis can be carried out by reducing the EDTA molecule weight through membrane centrifugation method and by replacing the solution with pH 7.0. […] The curve and receptor binding ability parameters of the protein and integrin αvβ3 are fitted under the conditions of DTPA modification, marking and purification by the One site-Specific binding formula in the Graph prism program (see FIG. 25 and Table 18). […] Although the two proteins after marking are greatly affected by the enzyme activity, they still have good binding ability to the integrin αvβ3 receptor. In consideration of the indispensability of EDTA for radiochemical purity, it retains a considerable amount of enzyme activity. In addition, the effect of integrin αvβ3 receptor binding ability is minimal, in combination of cell uptake, biodistribution and angiography experiment, focusing on the evaluation of target results, and the subsequent biological experiment is still carried out by the marking and purification conditions.

[5] = after 10x EDTA competition and purification

| Molecule | time to enter the systemic blood circulation system [1] [h] | radioactivity in the peritoneal cavity reduced to (fraction of 1 hour value) [2] | radiochemical purity after incubation [3] | Km [4] | Vmax [4] [µM/min] | Vmax compared with the original protein ([4]; after DTPA modification) [%] | Vmax ([4]; listed as DTPA- RGD4C-yCD) [µM/min] | Km [4, 5] [µM] | Vmax [4, 5] [µM/min] | Vmax compared with the original enzyme activity [4] [%] |
| --- | --- | --- | --- | --- | --- | --- | --- | --- | --- | --- |
| B1 | ≤ 1 | ½ | about 80% | – | – | – | – | – | – | – |
| B2 | – | – | – | 1160 ± 108 µM | 224.6 ± 8.408 | 80 | 224.6 ± 8.408 | – | – | – |
| B3 | – | – | – | 956 ± 76.8 µM | 226.8 ± 6.918 | – | – | 1630 ± 273 | 117.7 ± 9.510 | 40 |
| B4 | – | – | – | 840 µM and 1040 µM | 286.8 ± 10.80 | – | – | – | – | – |
| B5 | – | – | – | 1120 ± 58.7 µM | 270.0 ± 6.165 | – | – | 1930 ± 286 | 125.2 ± 9.652 | 47 |
